Target: the molecule itself
Test: Western blot of transfected cells, self-association (trimer) of the fiber fusion

| Protein | binding result |
| --- | --- |
| adenovirus type 5 fiber protein joined to full length PSTCD (other, biotin on lysine 89 of PSTCD (numbering of FIG. 1), also called fiber-PSTCD, full length form) MKRARPSEDTFNPVYPYDTETGPPTVPFLTPPFVSPNGFQESPPGVLSLRLSEPLVTSNGMLALKMGNGLSLDEAGNLTSQNVTTVSPPLKKTKSNINLEISAPLTVTSEALTVAAAAPLMVAGNTLTMQSQAPLTVHDSKLSIATQGPLTVSEGKLALQTSGPLTTTDSSTLTITASPPLTTATGSLGIDLKEPIYTQNGKLGLKYGAPLHVTDDLNTLTVATGPGVTINNTSLQTKVTGALGFDSQGNMQLNVAGGLRIDSQNRRLILDVSYPFDAQNQLNLRLGQGPLFINSAHNLDINYNKGLYLFTASNNSKKLEVNLSTAKGLMFDATAIAINAGDGLEFGSPNAPNTNPLKTKIGHGLEFDSNKAMVPKLGTGLSFDSTGAITVGNKNNDKLTLWTTPAPSPNCRLNAEKDAKLTLVLTKCGSQILATVSVLAVKGSLAPISGTVQSAHLIIRFDENGVLLNNSFLDPEYWNFRNGDLTEGTAYTNAVGFMPNLSAYPKSHGKTAKSNIVSQVYLNGDKTKPVTLTITLNGTQETGDTTPSAYSMSFSWDWSGHNYINEIFATSSYTFSYIAQEKLKVTVNGTAYDVDVDVDKSHENPMGTILFGGGTGGAPAPAAGGAGAGKAGEGEIPAPLAGTVSKILVKEGDTVKAGQTVLVLEAMKMETEINAPTDGKVEKVLVKERDAVQGGQGLIKIG | no binding |
| adenovirus type 5 fiber protein with the C-terminal 70 amino acid PSTCD domain (biotinylated) (other, biotin on lysine 89 of PSTCD (numbering of FIG. 1, full length PSTCD), also called fiber/PSTCD fusion protein; fiber of the biotinylated adenovirus) MKRARPSEDTFNPVYPYDTETGPPTVPFLTPPFVSPNGFQESPPGVLSLRLSEPLVTSNGMLALKMGNGLSLDEAGNLTSQNVTTVSPPLKKTKSNINLEISAPLTVTSEALTVAAAAPLMVAGNTLTMQSQAPLTVHDSKLSIATQGPLTVSEGKLALQTSGPLTTTDSSTLTITASPPLTTATGSLGIDLKEPIYTQNGKLGLKYGAPLHVTDDLNTLTVATGPGVTINNTSLQTKVTGALGFDSQGNMQLNVAGGLRIDSQNRRLILDVSYPFDAQNQLNLRLGQGPLFINSAHNLDINYNKGLYLFTASNNSKKLEVNLSTAKGLMFDATAIAINAGDGLEFGSPNAPNTNPLKTKIGHGLEFDSNKAMVPKLGTGLSFDSTGAITVGNKNNDKLTLWTTPAPSPNCRLNAEKDAKLTLVLTKCGSQILATVSVLAVKGSLAPISGTVQSAHLIIRFDENGVLLNNSFLDPEYWNFRNGDLTEGTAYTNAVGFMPNLSAYPKSHGKTAKSNIVSQVYLNGDKTKPVTLTITLNGTQETGDTTPSAYSMSFSWDWSGHNYINEIFATSSYTFSYIAQEEGEIPAPLAGTVSKILVKEGDTVKAGQTVLVLEAMKMETEINAPTDGKVEKVLVKERDAVQGGQGLIKIG | binds |
